T1: human PDL2 (human, UniProt Q9BQ51 20-219, limits assumed)
T1 construct: Bought protein
T1 sequence (looked up): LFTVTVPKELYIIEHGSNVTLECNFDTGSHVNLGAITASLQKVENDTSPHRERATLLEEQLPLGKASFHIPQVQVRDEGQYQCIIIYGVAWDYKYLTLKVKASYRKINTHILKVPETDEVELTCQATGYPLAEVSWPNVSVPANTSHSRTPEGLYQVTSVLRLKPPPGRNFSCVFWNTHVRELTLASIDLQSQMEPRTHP

B1: chimeric anti-PD-L1 antibody 111H2 (antibody, V domains shown)
VH: QEQLVESGGGLVQPGGTLKLSCKGSGFDLSSNAMCWVRQAPGKGLEWIGCIVYGNCYYASWVNGRFTISSDNAQSSVDLQLNSLTAADTATYFCARDPAGSSVYTGGFNIWGPGTLVTVSS
VL: AIDMTQTPSPVSAAVGDTVTINCQASENIYSFLAWYQQKPGHSPKPLIYFASKLASGVPSRFKGSGSGTQFTLTISDVQCDDAATYYCQQTVSYKNADTAFGGGTKVVVVR
notes: also called chimeric anti-PD-L1 111H2 antibody
B2: chimeric anti-PD-L1 antibody 116F3 (antibody, V domains shown)
VH: CQSVKESEGGLFKPTDTLTLTCTVSGIDLSSISIGWVRQAPGNGLEWIGTISDSGSAYYASWAKSRSTITRNTNENTVTLKMTSLTAADTASYFCAKEILYYGMDLWGPGTLVTVSS
VL: DVVMTQTPASVSGAVGGTVTIKCQASEDIESYLAWYQQKPGQPPKLLIYAASNLEPGVPSRFKGSRSGTEYTLTITDLECDDAATYHCQATYGSTSSSDYGNAFGGGTKVVVVR
B3: chimeric anti-PD-L1 antibody 115C1 (antibody, V domains shown)
VH: CQSVKESEGGLFKPTDTLTLTCTVSGFSLSSVAVSWVRQAPGKGLEWIGTISYTGNTYYASWAKSRSTITRNTNENTVTLKMPSLTVADTATYFCAKEILYYGMDFWGPGTLVTVSS
VL: DIVMTQTPSSVSAAVGGTVTINCQASQSISSYLAWYQQKPGQPPKLLIYGASNLESGVPSRFKGSGSGTDFTLTISDLECADAATYYCQSTYGSTSTSDYGNAFGGGTKVVVVR
B4: chimeric anti-PD-L1 antibody 113F1 (antibody, V domains shown)
VH: CQSVKESEGGLFKPTDTLTLTCTVSGIDLSSIAISWVRQAPGNGLEWIGTINSYGSTYYASWAQSRSTITRNTNENTVTLKMTSLTAADTASYFCAKEILYYGMDVWGPGTLVTVSS
VL: DVVMTQTPASVEAAVGGTVTIKCQASQSISSYLAWYQQKPGQPPKLLIYAASNLESGVPSRFKGSGSGTEYTLTISDLECDDAATYYCQSTYGTTSTSDYGNAFGGGTKVVVVR
B5: chimeric anti-PD-L1 antibody 115E2 (antibody, V domains shown)
VH: CQSVKESEGGLFKPMDTLTLTCTVSGIDLGSVAISWVRQAPGKGLEWIGTIGSSGSAYYASWAKSRSTITRNTNLNTVTLKMTSLTAADTASYFCAKEILYYGMDRWGPGTLVTVSS
VL: DVVMTQTPASVEASVGGTVTINCQASQSISSYLAWYQQKPGQPPKLLIYAASNLEPGVPSRFKGSGSGTEFTLTISDLECADAATYYCQATYGSTSSSDYGNAFGGGTKVVVVR
B6: chimeric anti-PD-L1 antibody 110H8 (antibody, V domains shown)
VH: CQSVKESEGGLFKPTDTLTLTCTVSGIDLSSVSISWVRQAPGNGLEWIGTIGASGSAYYASWAKRRSTITRNTNLNTVTLKMTSLTAADTASYFCAKEILYYGMDLWGPGTLVTVSS
VL: DVVMTQTPASVEAAVGGTVTIKCQASQSISNYLAWYQQKPGQRPKLLIYAASNLEPGVPSRFKGSGSGTEYTLTITDLECDDAATYHCQCTYGSTSSSDYGNAFGGGTKVVVVR
B7: chimeric anti-PD-L1 antibody 110B4 (antibody, V domains shown)
VH: CQSVKESEGGLFKPTDTLTLTCKVSGIDLSSISISWVRQAPGNGLEWIGVINSYGNTYYASWAKSRSTITRNTNENTVTLKMTSLTAADTATYFCAKEILYYGMDLWGPGTLVTVSS
VL: DVVMTQTPASVEAAVGGTVTIKCQASQSISSYFSWYQQKPGQRPKLLIYDASNLESGVPSRFKGSRSGTEYTLTISDLEWDDAATYYCQCTYGSTSSSNYGNNFGGGTKVVVVR

What was measured:
[1] = target: human PD-L1 expressed on cells (human, UniProt Q9NZQ7 19-290); assay: cell-based or functional assay
[2] = target: PD-L1 ligand (analyte of the Octet affinity measurement) (UniProt Q9NZQ7 19-238, limits assumed); assay: BLI (Octet RED 96), antibody captured on anti-human IgG sensor, PD-L1 in solution, 1:1 fit
Procedure: Affinity Measurement: The affinity measurement was conducted with Octet RED 96 (ForteBio) instrument at 30 degree Celsius. Briefly, anti-human IgG capture sensor (AHC from ForteBio cat #18-5060) was equilibrated with assay buffer (1× dilution of 10× Kinetics Buffer (ForteBio, Cat #18-5032). Test antibody samples were diluted to 3 ug/mL and allowed to bind to the sensors for 5 min. The sensors were then washed in assay buffer for 3 minutes, and PD-L1 ligand diluted at different concentrations were allowed to bind to the mAb coated on the sensors for 5 minutes. Afterwards, dissociation was followed for 10 minutes in the assay buffer. The sensors could be regenerated by washing in glycine buffer and assay buffer 3 times. The data were fitted with 1:1 binding model using the ForteBio software.

human PDL2 [3] = target: T1, human PDL2; assay: ELISA, coated human PDL2
human PDL2 [4] = target: T1, human PDL2; assay: ELISA on coated human PDL2 (printed: hu PDL2-Fc), purified chimeric antibody [panel hu PDL2-Fc ELISA]
Procedure: PD-L1 binding ELISAs: B cell cloning supernatants were tested for binding to PD-L1 by ELISA. ELISA plates were coated with 100 uL antigen at 0.5 or 1 ug/mL in PBS (Life Technologies, cat. #14190-250) overnight at 4° C. or for 1 hour at 37° C. […] Plates were then blocked with PBS+10% goat serum for 1 hour. After washing with deionized water, samples were added in PBS/10% goat serum and incubated for 1 hour. […] Plates were then washed with deionized water and 100 uL TMB substrate (Thermo Scientific, cat. #PI134021) was added to each well. Development was stopped with 100 uL 1N H₂SO₄, and OD450 was measured using a microplate spectrophotometer.
Purified chimeric and humanized antibodies were tested for binding to PD-L1 by ELISA. Antigens tested include; human PD-L1-Fc, human PD-L1-his, murine PD-L1-his, and cynomolgus PD-L1-his (Sinobiological, cat. #90251-CO8H) and human PDL2 (Acrobiosystems, cat. #PD2-H5251). Protocols were the same as for testing B cell cloning supernatants except that the secondary antibodies were as follows; for human PD-L1-Fc the secondary was goat anti-human kappa-HRP (Novex, Life Technologies, cat. #A18853), for human PD-L1-his, murine PD-L1-his and cynomolgus PD-L1-his the secondary was goat anti-human IgG Fc-HRP (Jackson ImmunoResearch, cat. #109-005-098).

human PD-L1-Fc = target: T2, human PD-L1-Fc (human, UniProt Q9NZQ7 19-238, limits assumed); assay: competition ELISA: coated human PD-L1-Fc, antibody added first, then PD1-his, detected with anti-His-HRP
T2 construct: Bought fusion protein; not shown: Fc part
T2 sequence (Q9NZQ7 19-238 limits assumed): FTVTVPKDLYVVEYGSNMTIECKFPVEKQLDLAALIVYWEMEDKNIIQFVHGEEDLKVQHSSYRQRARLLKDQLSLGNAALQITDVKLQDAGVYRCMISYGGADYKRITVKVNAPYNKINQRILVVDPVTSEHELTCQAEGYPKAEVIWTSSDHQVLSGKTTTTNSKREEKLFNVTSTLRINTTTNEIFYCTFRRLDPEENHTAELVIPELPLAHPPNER

Chain of PD-L1 ligand (analyte of the Octet affinity measurement) (Q9NZQ7 19-238 limits assumed): as above
Chain of human PD-L1 expressed on cells (Q9NZQ7 19-290): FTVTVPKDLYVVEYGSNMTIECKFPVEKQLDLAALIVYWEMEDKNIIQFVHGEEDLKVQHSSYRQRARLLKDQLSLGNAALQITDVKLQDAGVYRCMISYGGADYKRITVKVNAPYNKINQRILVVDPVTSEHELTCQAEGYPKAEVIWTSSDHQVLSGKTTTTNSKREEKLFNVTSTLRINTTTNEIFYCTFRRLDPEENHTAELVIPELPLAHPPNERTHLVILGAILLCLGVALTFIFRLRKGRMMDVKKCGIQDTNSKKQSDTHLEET

Binder	EC50 of the rise of luciferase activity, PD1/PD-L1 blockade reporter assay (CHO-K1/TCRA/PD-L1 cells with PD1/NFAT Jurkat cells); column Chimeric of the table under the plot [1] [µg/mL]	Kd [2] [nM]	koff [2] [s⁻¹]	kon [2] [M⁻¹ s⁻¹]	binding result (human PDL2 [3])	binding result (human PDL2 [4])	IC50 (read off the curve) (human PD-L1-Fc) [µg/mL]
B1	0.0483	0.183	0.000197	1.07e+06	no binding	–	–
B2	–	< 0.001	< 1e-07	682000	–	no binding (tested: 4 µg/mL)	~0.2
B3	–	0.051	2.08e-05	455000	–	no binding (tested: 4 µg/mL)	–
B4	–	0.115	3.78e-05	362000	–	no binding (tested: 4 µg/mL)	–
B5	–	0.1	4.99e-05	532000	–	no binding (tested: 4 µg/mL)	–
B6	–	< 0.001	< 1e-07	755000	no binding	–	–
B7	–	0.173	6.87e-05	404000	no binding	–	–

Reference: US20170355770A1 (ASKGENE PHARMA, published 2017)
